# According to US20180282373:
# Target: purified recombinant full-length WDR5 (UniProt P61964)
substance,measurement,value
"GST-tagged SETd1A Win-SET domain, Setd1A(1474-1708), Win motif arginine to alanine mutant","core complex methyltransferase activity, H3K4me1 and H3K4me2 peptides, mutant against wild type",at least a 2-fold reduction in activity compared to their wild-type counterparts
"GST-tagged MLL2 Win-SET domain, MLL2(5319-5537), Win motif arginine to alanine mutant","core complex H3K4 dimethylation activity, mutant against wild type",a 2-fold increase in this activity with the MLL2 Win motif variant
"GST-tagged MLL4 Win-SET domain, MLL4(2490-2715), Win motif arginine to alanine mutant","core complex methyltransferase activity, H3K4me1 peptide, mutant against wild type",showed similar amounts of activity compared to that of their wild-type counterparts
